{"source": "patent US20250188151A1", "about": "“C-JUN ANTAGONIST PEPTIDES” (The University of Bath, priority 2022, published 2025)", "molecules": {"B1": {"name": "A-FosW (peptide)", "peptide": "MASLEQRAEELARENEELEKEAEELEQELDELQAEIEQLEERNYALRKEIEDLQKQLEKLGAPHHHHHH", "notes": "Recombinant, capped and C-terminally 6xHis-tagged; also called rationally designed A-FosW template; parent peptide"}}, "key": {"cJun bZIP [1]": {"biological_target": "cJun bZIP (Homo sapiens, UniProt P05412, S292Y)", "test": "CD spectra and thermal denaturation of peptide/cJun heterodimers"}, "cJun": {"biological_target": "cJun (Homo sapiens, UniProt P05412, S292Y)", "test": "CD dimer exchange experiments", "settings": "A-FosW mixed with preformed HingeW/cJun heterodimer", "protocol": "Circular Dichroism (CD): An Applied Photophysics Chirascan was used for CD measurements, with a 200 μL sample in a 1 mm path length CD cell. Protein/DNA samples were suspended in 150 mM potassium phosphate, 150 mM potassium fluoride and 5 mM TCEP at pH 7.4 and were equilibrated for 30 minutes before measurement. […] These scans were averaged and converted to molar residue ellipticities (MRE). Thermal denaturation experiments were performed by measuring the ellipticity at 222 nm over a 1 to 90° C. gradient at 1° C. increments."}, "[2]": {"test": "CD spectra and thermal denaturation of peptide-only samples (helicity, homodimer Tm)", "protocol": "Circular Dichroism (CD): An Applied Photophysics Chirascan was used for CD measurements, with a 200 μL sample in a 1 mm path length CD cell. Protein/DNA samples were suspended in 150 mM potassium phosphate, 150 mM potassium fluoride and 5 mM TCEP at pH 7.4 and were equilibrated for 30 minutes before measurement. […] These scans were averaged and converted to molar residue ellipticities (MRE). Thermal denaturation experiments were performed by measuring the ellipticity at 222 nm over a 1 to 90° C. gradient at 1° C. increments. Post-melt scans at 20° C. confirmed the transitions were reversible as they overlaid within 10% of the pre-melt scan.\nCircular Dichroism (CD): An Applied Photophysics Chirascan was used for CD measurements, with a 200 μL sample in a 1 mm path length CD cell. Protein/DNA samples were suspended in 150 mM potassium phosphate, 150 mM potassium fluoride and 5 mM TCEP at pH 7.4 and were equilibrated for 30minutes before measurement. […] Thermal denaturation experiments were performed by measuring the ellipticity at 222 nm over a 1 to 90° C. gradient at 1° C. increments. Post-melt scans at 20° C. confirmed the transitions were reversible as they overlaid within 10% of the pre-melt scan.\nPeptide helicity was determined by quantifying the CD signal at 222 nm of peptide only samples. Thermal denaturation experiments were then used to determine the Tm of peptide-c-Jun heterodimers, which was used as an approximate measure of target engagement. […] The same 60 amino acid c-Jun bZIP construct was used for all experiments, regardless of antagonist peptide length."}, "cJun bZIP [3]": {"biological_target": "T1, cJun bZIP (human, UniProt P05412 252-308, limits assumed)", "T1 construct": "Purified from a His-SUMO fusion with the tag cleaved off; also called c-Jun bZIP domain; 60 amino acid c-Jun bZIP construct", "T1 chain": "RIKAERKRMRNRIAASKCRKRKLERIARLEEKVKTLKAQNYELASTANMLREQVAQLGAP", "test": "ITC, antagonist injected into cJun, one site model"}, "[4]": {"biological_target": "T2, cJun bZIP/TRE DNA interaction (transcriptional block of TRE-mDHFR) (Homo sapiens, UniProt P05412, S292Y)", "T2 construct": "expressed in transfected cells; host or cells: E. coli BL21 Gold carrying pES300d-TRE-mDHFR and pES230d-cJun bZIP", "test": "Transcription Block Survival (TBS) assay: colony counting and growth competition in E. coli", "assay_type": "cell-based", "settings": "vs transcriptionally blocked cells (TRE-mDHFR + cJun bZIP)", "text": "Library Construction and TBS Assay: Library inserts were produced using PCR fill-in reactions from synthesised primers (Sigma) with degenerate codons at the desired positions to produce the correct residue options. The library was subcloned using SacI and AscI sites into the pET24a plasmid containing A-FosW. The primers used were cJun-Hinge-Lib-F: 5′-[…] TATGCC-3′ (SEQ ID NO: 49) and cJun-Hinge-Lib_R: 5′-[…] GTTC-3′ (SEQ ID NO: 50). The library DNA was transformed into NEB 10-beta electrocompetent E. coli cells. The following equation was utilised to determine library coverage by the number of single colonies: E=100×(1−1/n)^m where E is the percentage of the library missing, m is the number of colonies collected and n is the library size. […] Library DNA quality was assessed by sequencing both the DNA pool and a number of single colonies to show degenerate codons in the correct positions in the pool and to show a diversity of library members from single colonies. The pool of library DNA was transformed into BL21 Gold cells already containing pES300d-TRE-mDHFR and pES230d-cJun bZIP.\nSelective pressure is applied by growing the bacteria in M9 minimal media with TMP (2-4 μM) alongside ampicillin, kanamycin and chloramphenicol to maintain the required plasmids, and IPTG (1 mM) to induce protein expression. The library transformants were first plated out onto selective agar plates (2 μM TMP) and grown at 37° C. for 72-96 h. Optimisation experiments (FIG. 5) indicate that 4 μM TMP is optimum for selection however a lower stringency is used initially before selection is increased in later steps. Colonies from this first round of selection were pooled and serially grown in liquid culture at starting OD600 of 0.05 and grown at 37° C. with shaking at 200 rpm until the OD600 reached 0.6. TMP concentration was 2 μM in the first liquid culture passage before it was increased to the optimum 4 μM in subsequent passages. […] At each passage step, a sample of the culture was plated on LB agar (supplemented with antibiotics to maintain plasmids) to select and sequence individual colonies, and a DNA pool was also sequenced. This allows the occurrence of library members to be monitored as winner sequences are selected for. Assay Validation experiments utilised a modified assay methodology whereby overnight cultures from glycerol stocks of the Control Strains (Table 2) were diluted to OD600=0.5 and 50 μL was plated on a selective M9 minimal medium agar plate.\nTranscription block survival (TBS) is an intracellular assay that utilises cell survival as a readout. […] This enzyme is absolutely essential for survival since it is required for the production of purines needed for DNA and amino acid synthesis. […]. We produced a mDHFR gene (FIGS. 2 and 3) by rational design to introduce 15 TRE sites into the coding DNA sequence to allow a robust cJun transcriptional block whilst minimising alteration to the expressed protein (TRE-mDHFR). In particular, the resulting TRE-mDHFR construct was produced via two silent and thirteen conservative mutations. […] The accessible surface areas of all other amino acid residues were calculated using the ‘Accessible Surface Area and Accessibility Calculation for Protein’ tool (http://cib.cf.ocha.ac.jp/bitool/ASA/). […]"}, "cJun bZIP [5]": {"biological_target": "T1, cJun bZIP"}, "TRE DNA": {"test_system": "TRE DNA", "test": "CD control: peptide with TRE DNA", "assay_type": "binding", "protocol": "Circular Dichroism (CD): An Applied Photophysics Chirascan was used for CD measurements, with a 200 μL sample in a 1 mm path length CD cell. Protein/DNA samples were suspended in 150 mM potassium phosphate, 150 mM potassium fluoride and 5 mM TCEP at pH 7.4 and were equilibrated for 30 minutes before measurement. […] These scans were averaged and converted to molar residue ellipticities (MRE)."}, "cJun bZIP [6]": {"biological_target": "T1, cJun bZIP", "test": "CD spectra at 20 °C"}, "cJun bZIP [7]": {"biological_target": "T1, cJun bZIP", "test": "cell-based or functional assay"}}, "note": "Where two headings read alike, the source gives them in different places.", "data": [{"molecule": "B1", "values": [{"measurement": "Fraction helicity at 20° C. (CD)", "setting": "cJun bZIP [1]; heterodimer with c-Jun, equimolar, 10 μM total", "result": 38.7, "unit": "%"}, {"measurement": "temperature of smaller initial transition (double transition)", "setting": "cJun bZIP [1]; heterodimer with cJun", "result": "~30", "unit": "°C"}, {"measurement": "Tm (° C.) (CD)", "setting": "cJun bZIP [1]; heterodimer with cJun bZIP, Example 1", "result": 69.9, "unit": "°C"}, {"measurement": "ΔTm from component average (CD)", "setting": "cJun bZIP [1]; heterodimer with cJun vs average of component profiles", "result": 27.5, "unit": "°C"}, {"measurement": "dimer exchange", "setting": "cJun", "result": "no dimer exchange had occurred"}, {"measurement": "Fraction helicity at 20° C. (CD)", "setting": "[2]; peptide alone", "result": 40.1, "unit": "%"}, {"measurement": "Tm (° C.) (CD)", "setting": "[2]; peptide alone (homodimer)", "result": 45.1, "unit": "°C"}, {"measurement": "Kd", "setting": "cJun bZIP [3]", "result": 0.0883, "unit": "µM"}, {"measurement": "TΔS (ITC)", "setting": "cJun bZIP [3]", "result": -26.9, "unit": "kcal/mol"}, {"measurement": "ΔG (ITC)", "setting": "cJun bZIP [3]", "result": -9.56, "unit": "kcal/mol"}, {"measurement": "ΔH (ITC)", "setting": "cJun bZIP [3]", "result": -36.5, "unit": "kcal/mol"}, {"measurement": "effect on TRE-mDHFR transcriptional block / colony numbers", "setting": "[4]", "result": "restore cell survival"}, {"measurement": "Tm (° C.) (CD)", "setting": "cJun bZIP [5]", "result": 69.9, "unit": "° C."}, {"measurement": "ΔTm from component average (CD)", "setting": "cJun bZIP [5]", "result": 27.5, "unit": "° C."}, {"measurement": "interaction with TRE DNA", "setting": "TRE DNA", "result": "no interaction"}, {"measurement": "increase in α-helicity relative to the average of the two component spectra", "setting": "cJun bZIP [6]", "result": 39, "unit": "%"}, {"measurement": "IC50, CD antagonism of cJun/TRE DNA (peak at ~281 nM)", "setting": "cJun bZIP [7]", "result": 16, "unit": "µM"}, {"measurement": "IC50, EMSA of free TRE DNA band", "setting": "cJun bZIP [7]", "result": 12.1, "unit": "µM"}, {"measurement": "TBS assay colony numbers relative to TRE-mDHFR only", "setting": "cJun bZIP [7]", "result": 60, "unit": "%"}, {"measurement": "Tm (° C.) (CD)", "result": 45.1, "unit": "° C."}]}]}
